According to publication PMC12742838, “Discovery and structural investigation of Varicella-Zoster virus gE-neutralizing antibodies isolated from a convalescent patient” (Protein & Cell, 2025):

B1: Varicella-zoster virus glycoprotein E (gE), recombinant protein, tag not told for these experiments (natural protein)
chain: SVLRYDDFHTDEDKLDTNSVYEPYYHSDHAESSWVNRGESSRKAYDHNSPYIWPRNDYDGFLENAHEHHGVYNQGRGIDSGERLMQPTQMSAQEDLGDDTGIHVIPTLNGDDRHKIVNVDQRQYGDVFKGDLNPKPQGQRLIEVSVEENHPFTLRAPIQRIYGVRYTETWSFLPSLTCTGDAAPAIQHICLKHTTCFQDVVVDVDCAENTKEDQLAEISYRFQGKKEADQPWIVVNTSTLFDELELDPPEIEPGVLKVLRTEKQYLGVYIWNMRGSDGTSTYATFLVTWKGDEKTRNPTPAVTPQPRGAEFHMWNYHSHVFSVGDTFSLAMHLQYKIHEAPFDLLLEWLYVPIDPTCQPMRLYSTCLYHPNAPQCLSHMNSGCTFTSPHLAQRVASTVYQNCEHADNYTAYCLGISHMEPSFGLILHDGGTTLKFVDTPESLSGLYVFVVYFNGHVEAVAYTVVSTVDHFVNAIEERGFPPTAGQPPATTKPKEITPVNPGTSPLLR
notes: glycoprotein E (gE) of Varicella-zoster virus; Methods are in the Supplementary Materials; also called gE protein
B2: Fab WLL-1 (Fab, V domains shown)
VH: QITLKESGPTLVKPTQTLTLTCTFSGFSLTNTEMTVGWIRRPPGKALEWLALIYWDDDKRYSPSLRSRLTITKDTSKNQVVLKMTNMDPVDTATYYCARLSLRLLTFDYWGQGTLVTVSS
VL: SYVVTQPPSVSVAPRQTARITCGGSNIGSKSVHWHQQKPGQAPVLVVYDDSDRPSGIPERFSGSNSGNTATLTITRVEAGDEADYYCQVWDSSGDHPLFGGGTKLTVL
B3: Fab WLL-28 (Fab, V domains shown)
VH: EVQLVQSGAEVKKPGEPLKISCKASGYNFANFWVGWVRQMPGRGLEWMGVIFPADSDTRYSPSFQGQVIISADKSTNTAYLQWSSLKASDSAMYYCARHVRGSLWGGGGYWGQGTLVTVSS
VL: EIVMTQSPSTLSVSPGEGATLSCRASQSVNNDLAWYQQKPGQAPRLLINGASTRATGIPARFTGSGSGTEFTLTISSLQPEDFAVYFCQQYNDWPRTFGQGTKVEIK

Tests used:
[1] = target: T1, recombinant soluble insulin-degrading enzyme (rIDE, residues 42-1,019) (UniProt P14735 42-1019); test: SPR; dissociation constant of gE to rIDE; conditions: both partners purified
T1 construct: insulin-degrading enzyme (IDE), cellular receptor of VZV gE, residues 42-1,019; Tags and host are probably in the Supplementary Materials; also called rIDE receptor protein; source: recombinant, purified

[2] = target: T2, Varicella-zoster virus glycoprotein E (gE), recombinant protein, tag not told for these experiments (Varicella-zoster virus, UniProt P09259); test: cryo-EM structure; ternary complex Fab WLL-1/Fab WLL-28/gE, resolved at 3.36 Å; only the gI-binding domain of gE is seen; conditions: both partners purified
T2 construct: glycoprotein E (gE) of Varicella-zoster virus; Methods are in the Supplementary Materials; also called gE protein

Binder | Kd [1] | binding result [2]
B1 | ~10 nM | 
B2 |  | binds
B3 |  | binds
